Test results reported in publication PMC3976055 (2014).

T1: Rpt5 C-domain (UniProt P33297 350-434)
T1 chain: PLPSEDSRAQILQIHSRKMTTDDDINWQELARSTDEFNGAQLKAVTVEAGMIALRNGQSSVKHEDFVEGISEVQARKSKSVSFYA


Columns and labels:
Rpt5 C-domain [1] = target: T1, Rpt5 C-domain; experiment: BLI
Rpt5 C-domain [2] = target: T1, Rpt5 C-domain; experiment: BLI

| koff (Rpt5 C-domain [1]) [s⁻¹] | Kd (Rpt5 C-domain [2]) [µM] | Binder |
| --- | --- | --- |
| 0.39 | 8.5 | Nas2LND (domain or fragment) GPLTRRASVGSQAIQYTIPFAFISEVVPGSPSDKADIKVDDKLISIGNVHAANHSKLQNIQMVVMKNEDRPLPVLLLREGQILKTSLTPSRNWNGRGLLGCRIQEL |
| 0.013 | 1.4 | Nas2 (natural protein) MEEEELSKLLANVKIDPSLTSRISQIDSFKLSELMVLKTDIETQLEAYFSVLEQQGIGMDSALVTPDGYPRSDVDVLQVTMIRKNVNMLKNDLNHLLQRSHVLLNQHFDNMNVKSNQDARRNNDDQAIQYTIPFAFISEVVPGSPSDKADIKVDDKLISIGNVHAANHSKLQNIQMVVMKNEDRPLPVLLLREGQILKTSLTPSRNWNGRGLLGCRIQEL |
| 0.26 | 3.4 | Nas2ND (domain or fragment) NDLNHLLQRSHVLLNQHFDNMNVKSNQDARRNNDDQAIQYTIPFAFISEVVPGSPSDKADIKVDDKLISIGNVHAANHSKLQNIQMVVMKNEDRPLPVLLLREGQILKTSLTPSRNWNGRGLLGCRIQEL |
